Experimental data from PMC5494207.

Assays:
[1] = biological target: FliG 158C/214C mutant (E. coli) (UniProt P0ABZ1); test: cross-linking
[2] = biological target: FliG 117C/166C protein (E. coli) (UniProt P0ABZ1); test: cross-linking

Row | stoichiometry N [1] | stoichiometry N [2] | Substance
1 | > 9 subunits |  | FliG 158C/214C mutant (from UniProt P0ABZ1 1-331) (natural protein)
2 |  | 8 subunits | FliG 117C/166C protein (from UniProt P0ABZ1 1-331) (natural protein)
